Experimental data as given in PMC5159831.

Experiments:
[1] = target: recombinant TACE catalytic domain
MMP7 catalytic domain = target: T1, MMP7 catalytic domain
T1 sequence (P09237 whole entry, species assumed, looked up): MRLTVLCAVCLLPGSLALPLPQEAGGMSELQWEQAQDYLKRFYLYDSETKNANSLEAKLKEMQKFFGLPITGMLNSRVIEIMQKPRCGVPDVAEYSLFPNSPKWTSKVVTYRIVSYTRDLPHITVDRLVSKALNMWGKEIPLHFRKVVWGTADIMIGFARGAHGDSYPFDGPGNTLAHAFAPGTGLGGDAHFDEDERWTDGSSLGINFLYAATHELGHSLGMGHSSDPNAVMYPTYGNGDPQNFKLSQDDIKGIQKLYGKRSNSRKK

Chain of recombinant TACE catalytic domain (P78536 215-671): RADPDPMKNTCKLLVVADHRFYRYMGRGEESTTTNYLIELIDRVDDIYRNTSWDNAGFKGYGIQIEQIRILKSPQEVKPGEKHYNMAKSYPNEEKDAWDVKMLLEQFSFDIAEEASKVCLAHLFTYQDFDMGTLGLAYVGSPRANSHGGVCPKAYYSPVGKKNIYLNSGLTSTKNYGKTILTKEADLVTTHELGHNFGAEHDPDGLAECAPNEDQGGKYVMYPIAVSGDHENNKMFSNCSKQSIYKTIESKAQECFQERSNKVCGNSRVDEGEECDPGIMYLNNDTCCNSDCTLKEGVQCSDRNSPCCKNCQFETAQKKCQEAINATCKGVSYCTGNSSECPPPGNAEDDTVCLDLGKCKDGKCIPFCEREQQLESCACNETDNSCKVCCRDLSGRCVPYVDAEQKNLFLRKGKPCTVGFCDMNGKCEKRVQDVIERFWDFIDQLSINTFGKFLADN
Chain of MMP9 catalytic domain (P14780 20-707): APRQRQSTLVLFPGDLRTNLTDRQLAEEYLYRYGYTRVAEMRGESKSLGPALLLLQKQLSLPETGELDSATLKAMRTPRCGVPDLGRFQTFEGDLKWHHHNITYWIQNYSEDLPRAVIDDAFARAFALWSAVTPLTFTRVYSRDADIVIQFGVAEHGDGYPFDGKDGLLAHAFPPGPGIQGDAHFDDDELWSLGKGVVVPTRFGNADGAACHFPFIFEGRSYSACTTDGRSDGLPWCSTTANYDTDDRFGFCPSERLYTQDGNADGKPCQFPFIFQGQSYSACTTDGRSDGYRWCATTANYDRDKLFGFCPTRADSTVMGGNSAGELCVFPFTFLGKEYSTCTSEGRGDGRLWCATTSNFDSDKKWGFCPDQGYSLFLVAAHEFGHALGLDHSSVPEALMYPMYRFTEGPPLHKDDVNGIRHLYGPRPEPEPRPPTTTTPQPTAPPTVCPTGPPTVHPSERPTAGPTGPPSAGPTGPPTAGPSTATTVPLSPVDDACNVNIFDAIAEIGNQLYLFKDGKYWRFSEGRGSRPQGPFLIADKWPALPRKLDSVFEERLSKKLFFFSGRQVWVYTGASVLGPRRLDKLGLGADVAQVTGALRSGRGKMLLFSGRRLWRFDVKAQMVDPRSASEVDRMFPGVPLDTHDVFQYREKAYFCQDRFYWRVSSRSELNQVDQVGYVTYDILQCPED

| Substance | IC50 of inhibition of the enzyme's hydrolysis of a fluorogenic peptide (10 nM MMP9, Mca-PLGL-Dpa-AR 10 μM, 37 °C) (MMP9 catalytic domain) [µM] | IC50 of inhibition of the enzyme's hydrolysis of a fluorogenic peptide (10 nM MT1-MMP, Mca-PLGL-Dpa-AR 10 μM, 37 °C) (MT1-MMP catalytic domain) [µM] | IC50 of inhibition of the enzyme's hydrolysis of a fluorogenic peptide (10 nM TACE, 37 °C) [1] [µM] | IC50 of inhibition of the enzyme's hydrolysis of a fluorogenic peptide (10 nM MMP7, Mca-PLGL-Dpa-AR 10 μM, 37 °C) (MMP7 catalytic domain) [µM] |
| --- | --- | --- | --- | --- |
| TACE prodomain (TPD) R58A (from UniProt P78536 23-214) (domain or fragment) | 4.34 | 4.65 | 0.307 | – |
| TACE prodomain double mutant R58A/C184A (TPD-DM) (from UniProt P78536 23-214) (domain or fragment) | – | – | 0.018 | 5.44 |
